Experimental data published in PMC7772510 (Molecules and Cells, 2020).

Biological target: T1, His6-αX I-domain (UniProt P20702 146-332)
T1 sequence (looked up): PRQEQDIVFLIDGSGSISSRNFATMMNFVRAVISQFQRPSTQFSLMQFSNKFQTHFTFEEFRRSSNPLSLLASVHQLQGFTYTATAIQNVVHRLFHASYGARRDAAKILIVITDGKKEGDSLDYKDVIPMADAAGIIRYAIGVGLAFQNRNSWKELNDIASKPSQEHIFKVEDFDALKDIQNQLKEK
Experiment: ELISA

Binder: NLDEDIIAEENIVSRSEFPESWLWNV (domain or fragment, human, UniProt P01024 750-775, looked up) [GST-αNTN]
- binding result: binds
